The target of experiment [1] is T1, polypeptide consisting of the amino acid sequence of SEQ ID NO: 66 (human).
T1 peptide: QQPQAASPSVPE
Kind of experiment: trypsin or chymotrypsin digestion of antibody-CAPRIN-1 complex, protein G Sepharose, MS/MS of recovered peptides. The protocol: The cancer cell surface-reactive mouse-chicken chimeric anti-human CAPRIN-1 monoclonal antibody #12 obtained in the paragraph (4) was used to identify a CAPRIN-1 epitope region recognized thereby. 100 μg of recombinant CAPRIN-1 proteins was dissolved in a protein inhibitor-free dissolving buffer and reacted with the mouse-chicken chimeric anti-human CAPRIN-1 monoclonal antibody #12. To this solution, a digestive enzyme trypsin or chymotrypsin was added, followed by digestion reaction at a suitable temperature. After the reaction, a protein G Sepharose carrier was added thereto, then reacted, and precipitated by centrifugation operation. After removal of the supernatant, the carrier was washed with a dissolving buffer and PBS and dissolved in 0.1% formic acid, and the supernatant was recovered. The recovered supernatant sample was applied to a reverse-phase column (HLB Extraction Cartridge (Waters-OASIS)) to obtain an antibody-free sample solution. The obtained sample was subjected to reverse-phase liquid chromatography (Chromatography Nanosytem (KYA Technologies Corp.)) to recover a solution containing only peptides. The solution was introduced to a tandem-type mass spectrometer Quadrupole-TOF Mass Spectrometer (Waters-MicroMass) and analyzed by MS/MS to detect the peptides contained in the sample. […]

Experiment [2] concerns the target human CAPRIN-1 expressed on the surface of human cancer cells and in human cancer tissues (human) (UniProt Q14444). Kind of experiment: flow cytometry, 2 µg antibody on 8 human breast cancer cell lines (ZR75-1, MCF7, T47D, SK-BR-3, MDA-MB-157, BT-20, MDA-MB-231V, MRK-nu-1); control mouse IgG1. (In general: A flow cytometer gives signals particle by particle.)
Experiment [3] shares this target. Kind of experiment: flow cytometry on human cancer cell lines Caki-1, Caki-2, A498, T24, SKOV3, QG56, PC3, Hela, HT1080, T98G, U87MG, MNK28, Lovo, Capan-2, MIAPaCa-2, Panc-1, BxPC-3; control mouse IgG1.

This is an account of results in patent US20150185222A1 (TORAY INDUSTRIES, published 2015).

B1: mouse-chicken chimeric anti-human CAPRIN-1 monoclonal antibody #12 (antibody, mouse IgG1, V domains shown)
VH: AVTLDESGGGLQMSRGGLSLVCKASGFDFSSYQMNWIRQAPGKGLEFVAAINKFGNSTGHGAAVKGRVTISRDNGQSTVRLQLNNLRAEDTAIYFCTKHAYGYCGSGTWCAAGEIDAWGHGTEVIVSS
VL: QAASTQPSSVSANPGETVEITCSGGGSYSYGWFQQKSPGSAPVTVIYYNNKRPSDIPSRFSGSKSGSTGTLTITGVQADDEAVYYCGSGDSTDTAVFGAGTTLTVLG
notes: Variable regions of chicken antibody #11 with the constant regions of mouse IgG1 (H chain and L chain constant regions); produced in CHO-K1; also called mouse-chicken anti-human CAPRIN-1 monoclonal antibody (#12)
B1: in experiment [1], the binding result is reported as “binds”. In addition, the rate of increase in mean fluorescence intensity (MFI) over control in experiment [2] and in experiment [3] was > 35% throughout.
